Measurements published in the RNAGym collection of RNA variant scans (doi:10.1093/molbev/msab373).

B1: Azoarcus group I ribozyme (parent)
chain: GUGCCUUGCGCCGGGAAACCACGCAAGGGAUGGUGUCAAAUUCGGCGAAACCUAAGCGCCCGCCCGGGCGUAUGGCAACGCCGAGCCAAGCUUCGGCGCCUGCGCCGAUGAAGGUGUAGAGACUAGACGGCACCCACCUAAGGCAAACGCUAUGGUGAAGGCAUAGUCCAGGGAGUGGCGAAAGUCACACAAACCGG

Variants of: B1
Assay: reverse-splicing fitness (ratio to wild type); higher = more active; in vitro selection; Mg2+ level not given
Method in brief: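 An in vitro group I ribozyme library with randomized positions was T7-transcribed and gel-purified. In triplicate, 10 pmol RNA in EPPS pH 7.5 was reacted with 50 pmoles of a 30-nt RNA substrate for 1 h at 37 °C across several added MgCl2 levels (1–48 mM), then stopped with EDTA. Products were reverse transcribed from a substrate-complementary primer, PCR-amplified and sequenced (HiSeq 4000). Fitness is a variant's read proportion after selection over that before, normalised to wild type.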

Variant	reverse-splicing fitness
A111U A120U A145C C150A C169G U176A	0.00297
A111U A120G C150A U176A	0.0147
A111U A120G C150A U176G	0.00685
A111U A120G C150A U176C	0.0216
A111U A120U A145C C150U C169G U176A	0.0032
A111U A120U A145C C150U C169G U176C	0.00276
A111U A120U A145C C150U C169G U176G	0.00222
A111U A120G C150G C169U	0.019
A111U A120G C150G C169G	0.018
A111U A120G C150G C169A	0.0142
A111U A120G C150A	0.02
A111U A120G C150U	0.0899
A111U A120G C150G	0.0154
A111U A120U A145G C150A C169A U176C	0.0038
A111U A120U A145G C150A C169A U176A	0.0049
A111U A120U A145G C150A C169A U176G	0.00281
A111U A120G A145C C150A	0.0115
A111U A120G A145C C150U	0.0388
A111U A120G A145C C150G	0.0213
A111U A120U A145C C169U U176G	0.00245
A111U A120U A145C C169U U176A	0.00945

Variant	reverse-splicing fitness
A111U A120U A145C C169U U176C	0.00989
A111U A120G A145C C150A U176C	0.0112
A111U A120G A145C C150A U176G	0.00407
A111U A120G A145C C150A U176A	0.00785
A111U A120G A145G C150G U176A	0.0103
A111U A120G A145G C150G U176C	0.0156
A111U A120G A145G C150G U176G	0.00598
A111U A120G A145U C150A C169U U176A	0.0271
A111U A120G A145U C150A C169U U176G	0.0052
A111U A120G A145U C150A C169U U176C	0.0173
A111U A120U A145C C150A U176C	0.00836
A111U A120U A145C C150A U176A	0.012
A111U A120U A145C C150A U176G	0.00552
A111U A120U A145C C150G C169U	0.00895
A111U A120U A145C C150G C169G	0.00697
A111U A120U A145C C150G C169A	0.0033
A111U A120G A145C U176C	0.0455
A111U A120G A145C U176G	0.00566
A111U A120G A145C U176A	0.038
A111U A120G A145U C169U U176G	0.00682
A111U A120G A145U C169U U176C	0.0495

Variant	reverse-splicing fitness
A111U A120G A145U C169U U176A	0.0488
A111U A120G C150G C169U U176C	0.0149
A111U A120G C150G C169U U176A	0.0137
A111U A120G C150G C169U U176G	0.00577
A111U A120G A145U C150A C169G U176C	0.0194
A111U A120G A145U C150A C169G U176G	0.00465
A111U A120G A145U C150A C169G U176A	0.0165
A111U A120U A145G C150A C169A	0.00554
A111U A120U A145G C150A C169G	0.00946
A111U A120U A145G C150A C169U	0.012
A111U A120U A145C U176C	0.168
A111U A120U A145C U176G	0.0539
A111U A120U A145C U176A	0.194
A111U A120G A145G C150G C169A	0.0157
A111U A120G A145G C150G C169G	0.0234
A111U A120G A145G C150G C169U	0.0237
A111U A120G C150U C169U	0.0857
A111U A120G C150U C169G	0.112
A111U A120G C150U C169A	0.0593
A111U A120G C150A C169A U176A	0.0237
A111U A120G C150A C169A U176G	0.00606

Variant	reverse-splicing fitness
A111U A120G C150A C169A U176C	0.0201
A111U A120G C150U C169U U176A	0.0401
A111U A120G C150U C169U U176C	0.0386
A111U A120G C150U C169U U176G	0.00701
A111U A120U A145C C150G U176C	0.0148
A111U A120U A145C C150G U176G	0.00337
A111U A120U A145C C150G U176A	0.0107
A111U A120G A145C C150U C169G U176G	0.00545
A111U A120G A145C C150U C169G U176C	0.0226
A111U A120G A145C C150U C169G U176A	0.0293
A111U A120U A145G C150A C169U U176A	0.00532
A111U A120U A145G C150A C169U U176G	0.00312
A111U A120U A145G C150A C169U U176C	0.00537
A111U A120G A145G C150G C169G U176A	0.00971
A111U A120G A145G C150G C169G U176C	0.0108
A111U A120G A145G C150G C169G U176G	0.00518
A111U A120G A145C C150G C169G	0.0237
A111U A120G A145C C150G C169A	0.0154
A111U A120G A145C C150G C169U	0.0237
A111U A120U A145C C150U C169G	0.0115
A111U A120U A145C C150U C169A	0.00229
